B1: AGDV-OCH3 (O-methylated AGDV) (peptide)
peptide: AGDV-OMe
B2: AGD(v) (D-valine in place of L-valine) (peptide)
peptide: AGD[dV]
B3: AGDV-NH2 (amidated AGDV) (peptide)
peptide: AGDV-NH2

The results in this text go back to paper PMC4813479 (2015).

Non-standard residues stand in square brackets, D forms with d. No end group written: not given here.

This experiment deals with recombinant αIIbβ3 headpiece. In words: FP.
Usually Kd stands for the equilibrium constant for the complex coming apart. Take B1: the dissociation constant Kd came out at 67.6 µM.
The result for B2 reads 217 µM; that for B3, 50.9 µM.
